Assay results from paper PMC5662768 (Scientific Reports, 2017).

Biological target: T1, glycosylated extracellular domain of human CD38 (aa 46-300) (Homo sapiens, UniProt P28907, glycosylation sites intact (glycosylated))
T1 construct: CD38, human, extracellular domain aa 46-300 with intact glycosylation sites; Amine-coupled to AR2G biosensors in the BLI experiments; also called recombinant human CD38; ectodomain of human CD38; source: secretory protein from the pCSE2.5 vector
Assay: BLI; Octet RED384; recombinant human CD38 amine-coupled to AR2G biosensors; 100 nM and 1 uM nanobody, 5 min association, 10 min dissociation; 25 C; HBS-EP+ pH 7.4; fit 1:1; off-rates only
Conditions: both partners purified

koff [s⁻¹] | Binder
0.0044 | single chain variable fragment (scFv) of daratumumab (scFv, V domains shown, VH domain of daratumumab; 15GS linker; VL domain of daratumumab; Order VH - linker - VL as the methods tell it; also called Dara scFv; Daratumumab scFv; source: HEK-6E, transiently transfected (pCSE2.5)) VH: EVQLLESGGGLVQPGGSLRLSCAVSGFTFNSFAMSWVRQAPGKGLEWVSAISGSGGGTYYADSVKGRFTISRDNSKNTLYLQMNSLRAEDTAVYFCAKDKILWFGEPVFDYWGQGTLVTVSS VL: not shown
0.0009 | CD38-specific nanobody MU1053 (family 14), monovalent, from HEK-6E cells (VHH, structure of MU1053 with CD38 is in PDB 5F1O (nanobody chain); also called l-15.3a; source: HEK-6E, transiently transfected (pCSE2.5), purified (Ni-NTA); not shown: His6, C-terminal, kept; Myc, C-terminal, kept) VHH: DVQLQESGGGLVQAGGSLRLSCTGSGRTFRNYPMAWFRQAPGKEREFVAGITWVGASTLYADFAKGRFTISRDNAKNTVYLQMNSLKPEDTAVYSCAAGRGIVAGRIPAEYADWGQGTQVTVSS
